Laboratory results from patent US20250304712A1 (published 2025).

Biological target: T1, recombinant LY6K protein with histidine and Strep tags (human, UniProt Q17RY6 18-138)
T1 chain: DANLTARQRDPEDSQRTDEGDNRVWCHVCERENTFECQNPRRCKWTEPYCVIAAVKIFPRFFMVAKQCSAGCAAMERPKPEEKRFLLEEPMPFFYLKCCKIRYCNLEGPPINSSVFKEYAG
Test: QCM

B1: murine anti-LY6K antibody 22C-G8 (antibody, V domains shown)
VH: QVQLQQPGAELAKPGASVKLSCKTSGYTFTSYWMHWVKQRPGQGFEWIGEINPSNGGANYNEKFKRKATLTVDKSSSTAYMQLRSLTSEDSAVYYCTMGGNFFFAYWGQGTSVTVSS
VL: not shown
Binder B1 has a Kd of 243 pM.

B2: murine anti-LY6K antibody G57 (antibody, V domains shown)
VH: EVQLVESGGDLVKPGGSLKLSCAASGFTFNSYGMSWVRQTPDKRLEWVATISSGGTYTYYSDSVKGRFTISRDNAKNILYLHMSSLKSEDTAMYYCARHDWDFFDYWGQGTTLTVSS
VL: DVVMTQTPLSLPVSLGDQASISCRSSQSLVHTDGDTYLNWYLQKPGQSPKLLIYKVSNRFSGVPDRFSGSGSGTDFTLKIRRVEAEDLGVYFCSQNTHVYTFGGGTKLE
With B2 the Kd was 1340 pM.

B3: murine anti-LY6K antibody 28C1 (antibody, V domains shown)
VH: QIQLVQSGPELKKPGETVKISCKTSGYTFTNFAMNWVKQTPGKGLRYMGWINTNTGEPTYVEEFKGRFAFSLETSASTAYLQISNLKNEDTATYFCTREWRRSYYFDYWGQGTSLTVSS
VL: DIQMTQTPLSLPVSLGDQASISCRSSQTILHSNGNTYLEWYLQKPGQSLKLLIYKVSNRLSGVPDRFSGSGSGTDFTLKISRVEAEDLGVYYCFQGSHDPFTFGSGTKLE
B3 was tested, and the Kd was 612 pM.
